Read-outs that look alike come from different tables or passages of the source.
T1: recombinant human IL-20 (human, UniProt Q9NYY1 25-176)
T1 sequence (looked up): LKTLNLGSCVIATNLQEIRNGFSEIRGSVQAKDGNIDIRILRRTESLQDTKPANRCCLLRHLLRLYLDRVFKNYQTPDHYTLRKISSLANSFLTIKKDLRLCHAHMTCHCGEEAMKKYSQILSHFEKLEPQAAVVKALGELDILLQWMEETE

B1: anti-IL-17 mAb (clone LY) (antibody, V domains shown)
VH: QVQLVQSGAEVKKPGSSVKVSCKASGYSFTDYHIHWVRQAPGQGLEWMGVINPMYGTTDYNQRFKGRVTITADESTSTAYMELSSLRSEDTAVYYCARYDYFTGTGVYWGQGTLVTVSS
VL: DIVMTQTPLSLSVTPGQPASISCRSSRSLVHSRGNTYLHWYLQKPGQSPQLLIYKVSNRFIGVPDRFSGSGSGTDFTLKISRVEAEDVGVYYCSQSTHLPFTFGQGTKLEIK
notes: parental mAb
B2: Anti-IL-17/IL-20 FIT1-Ig (bispecific antibody, human IgG1, kappa)
chain 1: not shown
chain 2: QVQLVQSGAEVKKPGSSVKVSCKASGYSFTDYHIHWVRQAPGQGLEWMGVINPMYGTTDYNQRFKGRVTITADESTSTAYMELSSLRSEDTAVYYCARYDYFTGTGVYWGQGTLVTVSSASTKGPSVFPLAPSSKSTSGGTAALGCLVKDYFPEPVTVSWNSGALTSGVHTFPAVLQSSGLYSLSSVVTVPSSSLGTQTYICNVNHKPSNTKVDKKVEPKSC
chain 3: not shown
notes: three-polypeptide FIT-Ig, no linker, human IgG1 Fc; described as tetravalent, so two copies of each chain
B3: Anti-IL-17/IL-20 FIT2-Ig (bispecific antibody, human IgG1, kappa)
chain 1: not shown
chain 2: B2 chain 2
chain 3: not shown
notes: three-polypeptide FIT-Ig with GSG linker; tetravalent
B4: Anti-IL-17/IL-20 FIT3-Ig (bispecific antibody, human IgG1, kappa)
chain 1: not shown
chain 2: B2 chain 2
chain 3: not shown
notes: three-polypeptide FIT-Ig with GGGGSGS linker; tetravalent
B5: anti-hIL-20 mAb (clone 15D2) (antibody, V domains shown)
VH: QVQLVQSGAEVKRPGASVKVSCKASGYTFTNDIIHWVRQAPGQRLEWMGWINAGYGNTQYSQNFQDRVSITRDTSASTAYMELISLRSEDTAVYYCAREPLWFGESSPHDYYGMDVWGQGTTVTVSS
VL: AIQLTQSPSSLSASVGDRVTITCRASQGISSALAWYQQKPGKAPKLLIYDASSLESGVPSRFSGSGSGTDFTLTISSLQPEDFATYYCQQFNSYPLTFGGGTKVEIK
notes: parental mAb
B6: FIT012b-Ig EGFR (panitumumab)/PD-L1 (1B12) (bispecific antibody, human IgG1, kappa)
chain 1: not shown
chain 2: QVQLQESGPGLVKPSETLSLTCTVSGGSVSSGDYYWTWIRQSPGKGLEWIGHIYYSGNTNYNPSLKSRLTISIDTSKTQFSLKLSSVTAADTAIYYCVRDRVTGAFDIWGQGTMVTVSSASTKGPSVFPLAPSSKSTSGGTAALGCLVKDYFPEPVTVSWNSGALTSGVHTFPAVLQSSGLYSLSSVVTVPSSSLGTQTYICNVNHKPSNTKVDKKVEPKSC
chain 3: not shown
notes: leader left out
B7: PD-L1 antibody 10A5 (antibody, V domains shown)
VH: QVQLVQSGAEVKKPGASVKVSCKASGYTFTSYDVHWVRQAPGQRLEWMGWLHADTGITKFSQKFQGRVTITRDTSASTAYMELSSLRSEDTAVYYCARERIQLWFDYWGQGTLVTVSS
VL: DIQMTQSPSSLSASVGDRVTITCRASQGISSWLAWYQQKPEKAPKSLIYAASSLQSGVPSRFSGSGSGTDFTLTISSLQPEDFATYYCQQYNSYPYTFGQGTKLEIK
notes: parental mAb
B8: FIT012d-Ig EGFR (panitumumab)/PD-L1 (10A5) (bispecific antibody)
chain 1: not shown
chain 2: B6 chain 2
chain 3: not shown
notes: leader left out
B9: Factor IXa mAb (antibody, V domains shown)
VH: QVQLVESGGGLVQPGGSLRLSCAASGFTFSYYDIQWVRQAPGKGLEWVSSISPSGQSTYYRREVKGRFTISRDNSKNTLYLQMNSLRAEDTAVYYCARRTGREYGGGWYFDYWGQGTLVTVSS
VL: DIQMTQSPSSLSASVGDRVTITCKASRNIERQLAWYQQKPGQAPELLIYQASRKESGVPDRFSGSRYGTDFTLTISSLQPEDIATYYCQQYSDPPLTFGGGTKVEIK
notes: parental mAb; also called Factor IX mAb; mAb FIX
B10: FIT014a Factor IX (Factor IX Ab)/Factor X (Factor X Ab) (bispecific antibody, human IgG4 S228P, kappa)
chain 1: DIQMTQSPSSLSASVGDRVTITCKASRNIERQLAWYQQKPGQAPELLIYQASRKESGVPDRFSGSRYGTDFTLTISSLQPEDIATYYCQQYSDPPLTFGGGTKVEIKRTVAAPSVFIFPPSDEQLKSGTASVVCLLNNFYPREAKVQWKVDNALQSGNSQESVTEQDSKDSTYSLSSTLTLSKADYEKHKVYACEVTHQGLSSPVTKSFNRGECQVQLVQSGSELKKPGASVKVSCKASGYTFTDNNMDWVRQAPGQGLEWMGDINTRSGGSIYNEEFQDRVIMTVDKSTDTAYMELSSLRSEDTATYHCARRKSYGYYLDEWGEGTLVTVSSASTKGPSVFPLAPCSRSTSESTAALGCLVKDYFPEPVTVSWNSGALTSGVHTFPAVLQSSGLYSLSSVVTVPSSSLGTQTYTCNVDHKPSNTKVDKRVESKYGPPCPPCPAPEFLGGPSVFLFPPKPKDTLMISRTPEVTCVVVDVSQEDPEVQFNWYVDGVEVHNAKTKPREEQYNSTYRVVSVLTVLHQDWLNGKEYKCKVSNKGLPSSIEKTISKAKGQPREPQVYTLPPSQEEMTKNQVSLTCLVKGFYPSDIAVEWESNGQPENNYKTTPPVLDSDGSFFLYSKLTVDKSRWQEGNVFSCSVMHEALHNHYTQESLSLSP
chain 2: QVQLVESGGGLVQPGGSLRLSCAASGFTFSYYDIQWVRQAPGKGLEWVSSISPSGQSTYYRREVKGRFTISRDNSKNTLYLQMNSLRAEDTAVYYCARRTGREYGGGWYFDYWGQGTLVTVSSASTKGPSVFPLAPSSKSTSGGTAALGCLVKDYFPEPVTVSWNSGALTSGVHTFPAVLQSSGLYSLSSVVTVPSSSLGTQTYICNVNHKPSNTKVDKKVEPKSC
chain 3: DIQMTQSPSSLSASVGDRVTITCKASRNIERQLAWYQQKPGQAPELLIYQASRKESGVPDRFSGSRYGTDFTLTISSLQPEDIATYYCQQYSDPPLTFGGGTKVEIKRTVAAPSVFIFPPSDEQLKSGTASVVCLLNNFYPREAKVQWKVDNALQSGNSQESVTEQDSKDSTYSLSSTLTLSKADYEKHKVYACEVTHQGLSSPVTKSFNRGEC
notes: leader left out; also called FIT-Ig 014a
B11: Factor X mAb (antibody, V domains shown)
VH: QVQLVQSGSELKKPGASVKVSCKASGYTFTDNNMDWVRQAPGQGLEWMGDINTRSGGSIYNEEFQDRVIMTVDKSTDTAYMELSSLRSEDTATYHCARRKSYGYYLDEWGEGTLVTVSS
VL: B9 VL
notes: parental mAb; also called mAb FX; Factor X Ab
B12: FIT14-Ig Factor IXa/Factor X (bispecific antibody, human IgG4 S228P, kappa)
chain 1: B10 chain 1
chain 2: B10 chain 2
chain 3: B10 chain 3
notes: leader left out; also called FIT-Ig 014; FIT-Ig 14

Columns and labels:
recombinant human IL-17 [1] = biological target: T2, recombinant human IL-17 (human, UniProt Q16552 24-155); test: cell-based or functional assay
T2 sequence (Q16552 24-155 limits assumed): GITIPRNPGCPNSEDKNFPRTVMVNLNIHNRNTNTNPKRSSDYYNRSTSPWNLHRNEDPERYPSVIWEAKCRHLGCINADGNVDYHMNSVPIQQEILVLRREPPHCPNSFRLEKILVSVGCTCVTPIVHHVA

recombinant human IL-17 [2] = biological target: T2, recombinant human IL-17; test: SPR Biacore, Ig captured by anti-Fc, antigen injected
Description: (§1) The kinetics of FIT-Ig binding to rhIL-17 and rhIL-20 was determined by surface plasmon resonance (Table 5) with a Biacore X100 instrument (Biacore AB, Uppsala, Sweden) using HBS-EP (10 mM HEPES, pH 7.4, 150 mM NaCl, 3 mM EDTA, and 0.005% surfactant P20) at 25° C. Briefly, goat anti-human IgG Fcγ fragment specific polyclonal antibody (Pierce Biotechnology Inc, Rockford, Ill.) was directly immobilized across a CM5 research grade biosensor chip using a standard amine coupling kit according to manufacturer's instructions. Purified FIT-Ig samples were diluted in HEPES-buffered saline for capture across goat anti-human IgG Fc specific reaction surfaces and injected over reaction matrices at a flow rate of 5 μl/min. The association and dissociation rate constants, kon (M-1s-1) and koff (s-1) were determined under a continuous flow rate of 30 μL/min. […] The equilibrium dissociation constant (M) of the reaction between FIT-Ig and the target proteins was then calculated from the kinetic rate constants by the following formula: KD=koff/kon. Aliquots of antigen samples were also simultaneously injected over a blank reference and reaction CM surface to record and subtract any nonspecific binding background to eliminate the majority of the refractive index change and injection noise. Surfaces were regenerated with two subsequent 25 ml injections of 10 mM Glycine (pH 1.5) at a flow rate of 10 μL/min.

recombinant human IL-20 [3] = biological target: T1, recombinant human IL-20; test: cell-based or functional assay
recombinant human IL-20 [4] = biological target: T1, recombinant human IL-20; test: SPR Biacore, Ig captured by anti-Fc, antigen injected
Description: as §1

[5] = biological target: T3, human PD-L1, recombinant protein (human, UniProt Q9NZQ7 19-239, limits assumed); test: method not stated
T3 construct: also called rhPD-L1; PD-L1-his
T3 sequence (Q9NZQ7 19-239 limits assumed): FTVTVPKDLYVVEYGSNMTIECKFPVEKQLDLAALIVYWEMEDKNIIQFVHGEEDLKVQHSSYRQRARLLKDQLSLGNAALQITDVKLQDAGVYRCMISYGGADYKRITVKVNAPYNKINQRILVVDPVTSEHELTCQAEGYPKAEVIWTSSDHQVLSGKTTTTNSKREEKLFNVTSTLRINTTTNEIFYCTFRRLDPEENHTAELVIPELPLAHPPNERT

[6] = biological target: T3, human PD-L1, recombinant protein; test: method not stated; remark: listed apart in the source
[7] = biological target: T4, hFactor IX (Enzyme Research Laboratory) (human, UniProt P00740 47-461); test: SPR Biacore X100, Ig captured by anti-Fc, 500 nM antigen
T4 construct: also called FIX
Description: (§2) Affinity measurement by surface plasmon resonance: The kinetics of FIT-Ig binding to hFactor IX and hFactor X (Enzyme Research Laboratory) was determined by surface plasmon resonance with a Biacore X100 instrument (Biacore AB, Uppsala, Sweden) using HBS-EP (10 mM HEPES, pH 7.4, 150 mM NaCl, 3 mM EDTA, and 0.005% surfactant P20) at 25° C. Briefly, goat anti-human IgG Fc fragment specific polyclonal antibody (Pierce Biotechnology Inc, Rockford, Ill.) was directly immobilized across a CM5 research grade biosensor chip using a standard amine coupling kit according to manufacturer's instructions. Purified FIT-Ig samples were diluted in HEPES-buffered saline for capture across goat anti-human IgG Fc specific reaction surfaces and injected over reaction matrices at a flow rate of 5 μl/min. The association and dissociation rate constants, kon (M-1s-1) and koff (s-1) were determined under a continuous flow rate of 30 μL/min. Rate constants were derived by making kinetic binding measurements at 500 nM antigen concentrations. The equilibrium dissociation constant (M) of the reaction between FIT-Ig and the target proteins was then calculated from the kinetic rate constants by the following formula: KD=koff/kon. Aliquots of antigen samples were also simultaneously injected over a blank reference and reaction CM surface to record and subtract any nonspecific binding background to eliminate the majority of the refractive index change and injection noise. Surfaces were regenerated with two subsequent 25 ml injections of 10 mM Glycine (pH 1.5) at a flow rate of 10 μL/min. The anti-Fc antibody immobilized surfaces were completely regenerated and retained their full capture capacity over twelve cycles.

Factor IXa = Factor IXa (UniProt P00740 47-461, limits assumed); test: method not stated
[8] = biological target: T5, hFactor X (Enzyme Research Laboratory) (human, UniProt P00742 41-488, limits assumed); test: SPR Biacore X100, Ig captured by anti-Fc, 500 nM antigen
T5 construct: also called FX
Description: as §2

Binder | Neutralization Potency IC50 (GROα production by Hs27 cells) (recombinant human IL-17 [1]) [nM] | Kd (recombinant human IL-17 [2]) [nM] | koff (recombinant human IL-17 [2]) [s⁻¹] | kon (recombinant human IL-17 [2]) [M⁻¹ s⁻¹] | Neutralization Potency IC50 (IL-20R+ BAF3 cell proliferation) (recombinant human IL-20 [3]) [nM] | Kd (recombinant human IL-20 [4]) [nM] | koff (recombinant human IL-20 [4]) [s⁻¹] | kon (recombinant human IL-20 [4]) [M⁻¹ s⁻¹] | also measured
B1 | 0.101 | 0.0218 | 1.8e-05 | 824000 | – | – | – | – | –
B2 | 0.102 | 0.00364 | 3.88e-05 | 1.07e+07 | 0.054 | 0.0273 | 3.82e-05 | 1.4e+06 | –
B3 | 0.137 | 0.00165 | 1.53e-05 | 9.24e+06 | 0.05 | 0.0195 | 3.5e-05 | 1.8e+06 | –
B4 | 0.146 | 0.0011 | 9.58e-06 | 8.71e+06 | 0.072 | 0.0273 | 3.82e-05 | 1.4e+06 | –
B5 | – | – | – | – | 0.05 | 0.05 | 8.3e-05 | 1.7e+06 | –
B6 | – | – | – | – | – | – | – | – | Kd [5]: 3.89 nM
B7 | – | – | – | – | – | – | – | – | Kd [6]: 0.735 nM
B8 | – | – | – | – | – | – | – | – | Kd [6]: 0.58 nM
B9 | – | – | – | – | – | – | – | – | Kd [7]: 13 nM; koff [7]: 0.000355 s⁻¹; kon [7]: 27400 M⁻¹ s⁻¹; Kd (Factor IXa): 13 nM; kon (Factor IXa): 27400 M⁻¹ s⁻¹
B10 | – | – | – | – | – | – | – | – | Kd [8]: 10 nM; koff [8]: 0.000776 s⁻¹; kon [8]: 77500 M⁻¹ s⁻¹; Kd [7]: 9.91 nM; koff [7]: 0.000332 s⁻¹; kon [7]: 33500 M⁻¹ s⁻¹
B11 | – | – | – | – | – | – | – | – | Kd [8]: 45.1 nM; koff [8]: 0.00142 s⁻¹; kon [8]: 31500 M⁻¹ s⁻¹
B12 | – | – | – | – | – | – | – | – | Kd (Factor IXa): 9.9 nM

Source: patent US20230220080A1 (EPIMAB BIOTHERAPEUTICS, published 2023)
